Sequences and labels used below:
B1: FJ1427_P035MP02G03 (VHH)
VHH: QVQLVESGGGLVQPGGSLGLSCAASGFTFSNYAMSWVRQAPGKGLEWVASITGFGRGTDYADSVKGRFTVSRDNAKNTLYLQMNSLKPEDTAVYYCAKYSSSTYYPPTPARGRDYRGQGTQVTVSS
B2: FJ1427 P035MP02C06 (VHH)
VHH: B1 VHH with V2L, G19E, A49S, V70I, K98R
B3: FJ1427_P035MP02B06 (VHH)
VHH: B1 VHH with G16E, A49S, F54A, V70I, S102G, A110V, R113T
B4: FJ1427 P035MP02D05 (VHH)
VHH: B1 VHH with G16E, A49S, F54A, V70I, S102G, A110V, R113T
B5: FJ1427_P035MP02C04 (VHH)
VHH: B1 VHH with G19E, A49S, V70I, A75D, K98R
B6: FJ1427_P035MP02F03 (VHH)
VHH: EVQLVESGGGLVQAGGSLRLSCAASGGTFSSYAMGWFRQAPGKEREFVAATTRGGGRTMYAVSTEGRFTCSRDNAKNTVYLLMNSLKPEDTAVYYCAAMTSYYSGTYYPDSSDFDIWGQGTQVTVSS
B7: FJ1427_P035MP02A06 (VHH)
VHH: B6 VHH with E1Q, V5Q, A75D, E89K
B8: FJ1427_P035MP02B04 (VHH)
VHH: B6 VHH with R19G, L82Q, E89K, V93I
B9: FJ1427_P035MP02E04 (VHH)
VHH: B6 VHH with L82Q, E89K, V93I
B10: FJ1427 P035MP02H04 (VHH)
VHH: B6 VHH with E1Q, G16D, A24T, G27L, M34L, E44K, A75D, E89K
B11: FJ1427_P035MP02F08 (VHH)
VHH: QVQLVESGGGLVQAGGSLRLSCAASGSIFSLNTMGWFRQAPGKEREFVAAISRSGGSATYGDSVKGRFTISTNNAKTTVYLQMNSLKPDDTAVYSCAASAAVGWTTRWSTIDFDSWGQGTQVTVSS
B12: FJ1427_P035MP02F06 (VHH)
VHH: EVQLVESGGGLVQTGGSLRLSCAASGSRFISDFMGWYRQVPGKQRELVADMADGGSARYGDSVKGRFTILRESGNATAYLQMSSLKPEDTGVYYCKAGLWIAGRHFDYWGQGTQVTVSS
B13: FJ1427 P035MP02A04 (VHH)
VHH: EVQLVESGGGLVQTGGSLRLSCTASGSQFINDVMGWYRQVPGKQRELVADMDDTGSTKYADSVNGRFTILRDSVKNTAYLQMSNLKPEDTGVYYCKAGLWIKGRHSDYWGQGTQVTVSS
B14: FJ1427 P035MP02G05 (VHH)
VHH: B13 VHH with T23A, M34T, N64K
B15: FJ1427 P035MP02F04 (VHH)
VHH: B13 VHH with T23A, N64K, S106F
B16: FJ1427_P035MP02D06 (VHH)
VHH: B13 VHH with T23A, N64K
B17: FJ1427_P035MP02A05 (VHH)
VHH: B13 VHH with T23A, N64K
B18: FJ1427_P035MP02B05 (VHH)
VHH: B13 VHH with T23A, N64K, S106F
B19: FJ1427_P035MP02G04 (VHH)
VHH: B13 VHH with E1Q, T14A, T23A, N64K, S106F
B20: FJ1427 P035MP02C08 (VHH)
VHH: EVQLVESGGGLVQAGGSLRLSCAASGSTFSRQPMYWFRQAPGKEREFVAAITWSGRGTLYADSVEGRFTISRDNAKNTVYLQMNSLRPDDTAAYYCAAGPYGDAAYRHGRIDSWGQGTQVTVSS
B21: FJ1427_P035MP02D07 (VHH)
VHH: EVQLVESGGGLVQAGGSLRLSCAASGRSLSTTEMGWFRQAPGKEREFVAAITWSGRGTMYAESVEGRFAVSRENAKNTVYLQMNSLKPEDTAIYYCAAARRGRAAVRSEGGYDFWGQGTQVTVSS
B22: FJ1427_P035MP02E03 (VHH)
VHH: EVQLVESGGGSVQTGGSLRLSCVVSGSHFISDVMGWYRQVPGKQRELVADMADGGSVKYGDSVKGRFTILRDSVKNTVTLQMSSLNPEDTGVYYCKAGLWITGRHFDYWGQGTQVTVTS
B23: FJ1427 P035MP02H05 (VHH)
VHH: B22 VHH with V57A, F106S
B24: FJ1427_P035MP02A08 (VHH)
VHH: EVQLVESGGGLVQAGGSLRLSCTVSGDVFVRYTMAWFRQAPGKEREFVATVTDSGRTTEYVDSVKGRFTVSRDNAKNTVYLQMNNLKPEDTAVYYCAANTDYFRIRSLDANTWGQGTQVTVSS
B25: FJ1427_P035MP02E08 (VHH)
VHH: B24 VHH with T23V, T50V, R104Q, L108V, A110N, T112A
B26: FJ1427 P035MP02G08 (VHH)
VHH: B24 VHH with E1Q, T50S, D62H, K65R
B27: FJ1427 P035MP02D08 (VHH)
VHH: B24 VHH with T23V, A49T, T50S, V51I
B28: FJ1427_P035MP02D04 (VHH)
VHH: QVQLVESGGGLVQTGGSLRLSCAVSGSRFISDVMGWYRQVPGKQRELVADMADGGSAKYADSVKGRFSILRDSVKNTVYLQMSSLKPEDTGIYYCKAGLWIAGRHSDYWGQGTQVTVSS
B29: FJ1427_P035MP02F05 (VHH)
VHH: B28 VHH with Q1E
B30: FJ1427 P035MP02C05 (VHH)
VHH: B28 VHH
B31: FJ1427_P035MP02C07 (VHH)
VHH: QVQLVESGGGLVQAGGSLRLSCAASGRTFSINTMGWFRQAPGKEREFVAAISRSGDSTVYVDSVKGRFTISRDNAKNTVYLQMNTLKPEDTAVYYCATTVAVGWTTRWSTIDFDSWGQGTQVTVSS
B32: FJ1427_P035MP02E05 (VHH)
VHH: EVQLVESGGGLVQIGGSLRLSCAASGRTFSSITMAYFRQVPGKEHEWVAGINFSGTRTFYADSVKGRFLISRDDAKSTMYLQMNSLKPEDTAVYYCAASPRGFYGPGNALYDYWGQGTQVTVSS
B33: FJ1427 P035MP02B07 (VHH)
VHH: EVQLVESGGGLVEAGGSLRLSCAASGRAFNNFPMGWFRQAPGKEREFVAAITWISGSTLYADSVKGRFTISRDKSKNTVYLQMSGLKPEDTALYYCAAALKTITRGQHDYTYWGQGTQVTVSS

Residue numbers refer to the chain shown, from its start.

The experiment deals with T1, mouse IL-2Rβ (mouse) (UniProt P16297).
T1 sequence (looked up): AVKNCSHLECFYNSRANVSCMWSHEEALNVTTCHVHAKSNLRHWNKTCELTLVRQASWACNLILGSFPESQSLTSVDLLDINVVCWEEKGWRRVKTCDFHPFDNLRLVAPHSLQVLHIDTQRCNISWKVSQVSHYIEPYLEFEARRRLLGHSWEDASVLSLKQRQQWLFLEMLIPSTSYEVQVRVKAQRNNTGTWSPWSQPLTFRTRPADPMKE
Nature of the experiment: P.E. ELISA, coated protein.
As for B1, the P.E. binding ELISA OD is 0.049 OD450 nm.

B2 registered a P.E. binding ELISA OD of 0.047 OD450 nm.

The molecule B3 had a P.E. binding ELISA OD of 0.047 OD450 nm.

Molecule B4 displayed a P.E. binding ELISA OD of 0.049 OD450 nm.

As to B5, the P.E. binding ELISA OD came to 0.047 OD450 nm.

B6 came in with a P.E. binding ELISA OD of 0.048 OD450 nm.

Molecule B7 yielded a P.E. binding ELISA OD of 0.048 OD450 nm.

Take B8: the P.E. binding ELISA OD was 0.047 OD450 nm.

As to B9, the P.E. binding ELISA OD is 0.048 OD450 nm.

B10 yielded a P.E. binding ELISA OD of 0.05 OD450 nm.

B11 displayed a P.E. binding ELISA OD of 0.048 OD450 nm.

In the case of B12, the P.E. binding ELISA OD turned out to be 0.047 OD450 nm.

In the case of B13, the P.E. binding ELISA OD turned out to be 0.048 OD450 nm.

The molecule B14 yielded a P.E. binding ELISA OD of 0.048 OD450 nm.

Regarding B15, the P.E. binding ELISA OD is 0.048 OD450 nm.

For the molecule B16, the P.E. binding ELISA OD amounted to 0.047 OD450 nm.

With B17, the P.E. binding ELISA OD turned out to be 0.047 OD450 nm.

B18 showed a P.E. binding ELISA OD of 0.048 OD450 nm.

Take B19: the P.E. binding ELISA OD was found to be 0.048 OD450 nm.

Regarding B20, the P.E. binding ELISA OD was 0.047 OD450 nm.

B21 came in with a P.E. binding ELISA OD of 0.046 OD450 nm.

In the case of B22, the P.E. binding ELISA OD came to 0.049 OD450 nm.

For the molecule B23, the P.E. binding ELISA OD was 0.049 OD450 nm.

B24 registered a P.E. binding ELISA OD of 0.069 OD450 nm.

The molecule B25 showed a P.E. binding ELISA OD of 0.058 OD450 nm.

For B26, the P.E. binding ELISA OD turned out to be 0.055 OD450 nm.

The molecule B27 yielded a P.E. binding ELISA OD of 0.048 OD450 nm.

Consider B28, for which the P.E. binding ELISA OD came to 0.048 OD450 nm.

B29: the P.E. binding ELISA OD was determined as 0.048 OD450 nm.

As to B30, the P.E. binding ELISA OD worked out at 0.047 OD450 nm.

With B31, the P.E. binding ELISA OD was 0.046 OD450 nm.

In the case of B32, the P.E. binding ELISA OD was 0.048 OD450 nm.

B33: the P.E. binding ELISA OD was 0.046 OD450 nm.
